This assay has as its target T1, TIGIT antigen (UniProt Q495A1).
T1 sequence (looked up): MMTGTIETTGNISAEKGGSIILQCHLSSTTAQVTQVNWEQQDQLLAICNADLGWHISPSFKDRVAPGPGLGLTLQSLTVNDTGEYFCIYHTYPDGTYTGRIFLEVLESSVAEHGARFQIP
Briefly: ELISA on TIGIT antigen, OD405. On the technique in general: ELISA stands for enzyme-linked immunosorbent assay.

B1: TT385 (Fab, part only; not given: Tiragolumab light chain, V domains shown, part only)
VH: EVQLVESGPEVKKPGTSVKVSCKASGLTFSRSAVQWLRQARGQRLEWIGWVDVASSNTNYAQKFQERVTITRDMSTSTAYMELSNLRTEDTAVYYCAADLYGFWGVQGFDPWGQGTMVTVSS
In turn, B1 returned an ELISA OD405 Reading of 0.474 OD405.

B2: TT357 (Fab, part only; not given: Tiragolumab light chain, V domains shown, part only)
VH: QVQLVQSGGGLVQPGGSLRLSCAASGFTFSRYWMTWVRQAPGKGLEWVANTNQDGSETYYVDSVKGRFTISRDNAKNSLYLQMNSLRAEDTAVYYCARRWSGYHDGSGYDYFDYWDQGTLVTVSS
Molecule B2 returned an ELISA OD405 Reading of 0.471 OD405.

B3: TT321 (Fab, part only; not given: Tiragolumab light chain, V domains shown, part only)
VH: EVQLVESGGGLVQPGGSLRLSCAASGFTFNMYAMSWVRQGPGKGLEWVSTISGGAGSTYYADSVKGRFTISRDNSKNTVYLQMNSLRAEDTAVYYCASEVVAATTLDYWGQGTTVTVSS
Take B3: the ELISA OD405 Reading was 0.547 OD405.
